Laboratory results published in patent US20160137732A1.

Biological target: complement protein C1q (human) (UniProt P02745)
Assay: cell-based or functional assay

Chain of UniProt P02745 (P02745 23-245 limits assumed, chain 1 of 3): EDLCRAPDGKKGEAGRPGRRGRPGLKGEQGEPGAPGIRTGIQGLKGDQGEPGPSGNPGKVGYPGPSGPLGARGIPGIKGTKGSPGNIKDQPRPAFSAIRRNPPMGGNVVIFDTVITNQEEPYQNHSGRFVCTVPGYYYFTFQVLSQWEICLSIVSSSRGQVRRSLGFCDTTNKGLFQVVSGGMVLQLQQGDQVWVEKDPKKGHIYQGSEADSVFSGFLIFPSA
Chain of UniProt P02745 (P02746 28-253 limits assumed, chain 2 of 3, further chain): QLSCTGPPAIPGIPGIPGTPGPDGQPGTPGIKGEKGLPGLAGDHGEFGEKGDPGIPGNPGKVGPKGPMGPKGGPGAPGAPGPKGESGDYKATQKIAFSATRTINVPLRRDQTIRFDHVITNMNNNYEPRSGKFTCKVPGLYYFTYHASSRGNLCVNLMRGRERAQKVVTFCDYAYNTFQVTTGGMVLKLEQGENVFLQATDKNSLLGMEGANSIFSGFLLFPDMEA
Chain of UniProt P02745 (P02747 29-245 limits assumed, chain 3 of 3, further chain): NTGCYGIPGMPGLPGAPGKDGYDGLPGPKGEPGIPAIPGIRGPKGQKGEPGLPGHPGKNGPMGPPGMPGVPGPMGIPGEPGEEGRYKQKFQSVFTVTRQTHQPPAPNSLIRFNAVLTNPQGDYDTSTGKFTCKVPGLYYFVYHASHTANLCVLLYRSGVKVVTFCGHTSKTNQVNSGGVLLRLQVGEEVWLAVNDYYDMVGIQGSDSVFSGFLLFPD

fold-increase in the EC50 value compared with wild-type Hu1D10-IgG1 antibody (CDC) [fold]	fold-increase in the maximum percent lysis (CDC) [fold]	average fold-increase in the EC50 value compared with wild-type Hu1D10-IgG1 antibody (CDC) [fold]	average fold-increase in the maximum percent lysis (CDC) [fold]	Substance
2.5	1.2 to 1.4			Hu1D10-IgG1 single mutant I332F (antibody)
		13 to 16	1.3 to 1.4	Hu1D10-IgG1 double mutant S324W/I332F (antibody)
2				Hu1D10-IgG1 single mutant S324Y (antibody)
		13 to 16	1.3 to 1.4	Hu1D10-IgG1 double mutant S324N/I332F (antibody)

The remaining lines, values behind:

Substance	fold-increase in the EC50 value compared with wild-type Hu1D10-IgG1 antibody (CDC) [fold]	fold-increase in the maximum percent lysis (CDC) [fold]	average fold-increase in the EC50 value compared with wild-type Hu1D10-IgG1 antibody (CDC) [fold]	average fold-increase in the maximum percent lysis (CDC) [fold]
Hu1D10-IgG1 single mutant S324M (antibody)	2			
Hu1D10-IgG1 double mutant S324N/I332M (antibody)			13 to 16	1.3 to 1.4
Hu1D10-IgG1 single mutant I332M (antibody)	2.5	1.2 to 1.4		
Hu1D10-IgG1 single mutant I332G (antibody)	1.5	1.2 to 1.4		
Hu1D10-IgG1 double mutant S324W/I332M (antibody)			13 to 16	1.3 to 1.4
